Measured values from patent US20240279281A1, “Peptide Inhibitors of Interleukin-23 Receptor” (Janssen Pharmaceutica NV, priority 2023, published 2024).
One block for each binder: values may come before it. Starred links: 1 amine or outer side, 2 acyl side, 3 side chain; linkers in the order of their positions; H or OH if unused. Positions of bridges follow the written chain, without caps; N, C: chain ends. Non-standard residues stand in square brackets, D forms with d. TMAPF = 5-(4-(2-amino-2-carboxyethyl)phenoxy)-N,N,N-trimethylpentan-1-aminium, C[N+](C)(C)CCCCCOc1ccc(C[C@H](N[*:1])C(=O)[*:2])cc1; 6Br2Nal = 2-amino-3-(6-bromonaphthalen-2-yl)propanoic acid, O=C([C@H](Cc1ccc2cc(Br)ccc2c1)N[*:1])[*:2]; 2Nal(6-OH) = N[C@@H](Cc1ccc2cc(O)ccc2c1)C(=O)O; Trp(7-Me) = Cc1cccc2c(C[C@H](N)C(=O)O)c[nH]c12; AEF = NCCOc1ccc(C[C@H](N)C(=O)O)cc1; 3Pal = N[C@@H](Cc1cccnc1)C(=O)O; Pen = CC(C)(S)[C@H](N)C(=O)O; Thp = NC1(C(=O)O)CCOCC1; Sar = CNCC(=O)O

Target: T1, interleukin-23 receptor (IL-23R) (UniProt Q5VWK5 24-629, limits assumed)
T1 sequence (looked up): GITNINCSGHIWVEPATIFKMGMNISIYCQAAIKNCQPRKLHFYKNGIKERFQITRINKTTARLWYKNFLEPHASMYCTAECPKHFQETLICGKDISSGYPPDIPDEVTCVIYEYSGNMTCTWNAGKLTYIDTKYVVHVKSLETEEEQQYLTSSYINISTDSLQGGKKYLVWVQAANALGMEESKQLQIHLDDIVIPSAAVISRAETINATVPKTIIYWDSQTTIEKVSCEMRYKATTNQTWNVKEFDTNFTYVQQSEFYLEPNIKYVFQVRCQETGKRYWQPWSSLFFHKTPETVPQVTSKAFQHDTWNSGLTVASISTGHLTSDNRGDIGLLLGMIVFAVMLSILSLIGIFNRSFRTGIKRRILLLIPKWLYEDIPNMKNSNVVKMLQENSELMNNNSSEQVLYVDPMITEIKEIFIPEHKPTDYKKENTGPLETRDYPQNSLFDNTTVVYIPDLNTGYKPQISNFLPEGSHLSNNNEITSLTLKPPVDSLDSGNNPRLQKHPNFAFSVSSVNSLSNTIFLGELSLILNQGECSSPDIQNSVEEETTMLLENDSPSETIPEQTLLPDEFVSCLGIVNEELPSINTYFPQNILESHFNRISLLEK
Assay: cell-based or functional assay

- IL23R Reporter Assay IC50: ≥ 100 nM
B1: SEQ ID NO: 444 (peptide)
peptide: Ac-[dR][Pen]NT[Trp(7-Me)]K(Ac)[Pen][AEF][6Br2Nal][Thp]EN[Thp]-NH2
modifications: disulfide 2-7 (inferred)

- IL23R Reporter Assay IC50: < 10 nM
B2: SEQ ID NO: 59 (peptide)
peptide: Ac-[dR][Pen]NT[Trp(7-Me)]K(Ac)[Pen][TMAPF][2Nal(6-OH)][Thp]EN[3Pal][Sar]-NH2
modifications: disulfide 2-7 (inferred)
